Measured values: the supplement of paper PMC9233669
Fewer inactive variants are shown than the library holds.

Key:
[1] = test system: biotinyl-Phe-oxazolone; test: self-aminoacylation, catalytic enhancement (BFO) (fold over background); higher = more active; k-Seq, kA / k0A0; sequences stand for … in GGGAAUGGAUCCACAUCUACGAAUUC…UUCACUGCAGACUUGACGAAGCUG
Outline: (§1)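 Mutagenized RNA pools (0.43 μM; 21-nt variable region) were treated with 2–1250 μM of each biotinyl-aminoacyl-oxazolone. Conditions were 50 μL HEPES/NaCl/KCl/MgCl2/CaCl2 buffer, 5% acetonitrile, pH 6.9–7.0, room temperature, 90 minutes. Catalytic enhancement, the median kA relative to the uncatalyzed rate, was derived from streptavidin capture, qPCR and Illumina sequencing.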

[2] = test system: biotinyl-Ile-oxazolone; test: self-aminoacylation, catalytic enhancement (BIO) (fold over background); higher = more active; k-Seq, kA / k0A0; sequences stand for … in GGGAAUGGAUCCACAUCUACGAAUUC…UUCACUGCAGACUUGACGAAGCUG
Outline: as §1

[3] = test system: biotinyl-Met-oxazolone; test: self-aminoacylation, catalytic enhancement (BMO) (fold over background); higher = more active; k-Seq, kA / k0A0; sequences stand for … in GGGAAUGGAUCCACAUCUACGAAUUC…UUCACUGCAGACUUGACGAAGCUG
Outline: as §1

[4] = test system: biotinyl-Val-oxazolone; test: self-aminoacylation, catalytic enhancement (BVO) (fold over background); higher = more active; k-Seq, kA / k0A0; sequences stand for … in GGGAAUGGAUCCACAUCUACGAAUUC…UUCACUGCAGACUUGACGAAGCUG
Outline: as §1

[5] = test system: biotinyl-Leu-oxazolone; test: self-aminoacylation, catalytic enhancement (BLO) (fold over background); higher = more active; k-Seq, kA / k0A0; sequences stand for … in GGGAAUGGAUCCACAUCUACGAAUUC…UUCACUGCAGACUUGACGAAGCUG
Outline: as §1

[6] = test system: biotinyl-Trp-oxazolone; test: self-aminoacylation, catalytic enhancement (BWO) (fold over background); higher = more active; k-Seq, kA / k0A0; sequences stand for … in GGGAAUGGAUCCACAUCUACGAAUUC…UUCACUGCAGACUUGACGAAGCUG
Outline: as §1

Sequence	self-aminoacylation [1]	self-aminoacylation [2]	self-aminoacylation [3]	self-aminoacylation [4]	self-aminoacylation [5]	self-aminoacylation [6]
AUUACCGUGGUCAUCGAGUUA [Fam2.1 aminoacylation ribozyme variant]	0.524	1.09	0.946	1.02	0.897	0.691
AUUACCGUGGUCAUCGGGUGA [Fam2.1 aminoacylation ribozyme variant]	105	7.08	11.7	8.1	11.9	17.3
AUUACCGUGGUCUUCGAGUGA [Fam2.1 aminoacylation ribozyme variant]	27	2.96	5.14	3.21	5.05	6.36
AUUACCGUUGUCAUCGAGUGA [Fam2.1 aminoacylation ribozyme variant]	40.2	4.49	7.75	4.16	8.01	9.94
AUUACCUUGAUCAUCGAGUGA [Fam2.1 aminoacylation ribozyme variant]	37.6	3.94	8.63	4.44	8.21	10.7
AUUACCUUGCUCAUCGAGUGA [Fam2.1 aminoacylation ribozyme variant]	4.55	1.68	2.29	1.82	2.31	3.02
AUUACCUUGGUAAUCGAGUGA [Fam2.1 aminoacylation ribozyme variant]	40	3.52	7.66	3.87	8.08	8.42
AUUACCUUGGUCAACGAGUGA [Fam2.1 aminoacylation ribozyme variant]	17.5	3.57	6.26	3.54	6	6.5
AUUACCUUGGUCACCGAGUGA [Fam2.1 aminoacylation ribozyme variant]	23.4	2.87	6.15	3.11	6.74	6.72
AUUACCUUGGUCAGCGAGUGA [Fam2.1 aminoacylation ribozyme variant]	21.5	3.26	5.05	3.08	5.38	6.84
AUUACCUUGGUCAUCGAGAGA [Fam2.1 aminoacylation ribozyme variant]	0.809	0.924	0.957	1.19	0.907	0.946
AUUACCUUGGUCAUCGCGUGA [Fam2.1 aminoacylation ribozyme variant]	130	7.37	17.3	9.23	19.2	19.5
AUUACCUUGGUCAUCGGGUGA [Fam2.1 aminoacylation ribozyme variant]	53.3	5.69	9.54	6.05	10.6	10.8
AUUACCUUGGUCUUCGAGUGA [Fam2.1 aminoacylation ribozyme variant]	32.9	3.43	6.13	4.04	6.52	7.78
AUUACCUUGGUUAUCGAGUGA [Fam2.1 aminoacylation ribozyme variant]	44.2	3.66	8.15	4.03	7.92	9.73
AUUACGCAGGUCAUCGAGUGA [Fam2.1 aminoacylation ribozyme variant]	3.59	2.73	3.04	2.45	3.44	5.06
AUUACGCUAGUCAUCGAGUGA [Fam2.1 aminoacylation ribozyme variant]	2.19	2.48	3.01	2.47	3.48	3.63
AUUACGCUGGUCAUCGACUGA [Fam2.1 aminoacylation ribozyme variant]	0.691	1.48	0.889	1.24	1.73	1.65
AUUACGCUGGUCAUCGAGGGA [Fam2.1 aminoacylation ribozyme variant]	1.38	1.61	1.46	2.03	1.98	2.25
AUUACGCUGGUCAUCGAGUCA [Fam2.1 aminoacylation ribozyme variant]	0.768	1.15	1.15	1.23	1	0.981
AUUACGCUGGUCAUCGAGUGG [Fam2.1 aminoacylation ribozyme variant]	1.66	1.46	2.06	1.45	1.87	1.73
AUUACGCUGGUUAUCGAGUGA [Fam2.1 aminoacylation ribozyme variant]	27.5	3.22	5.92	3.68	5.48	6.53
AUUACGCUUGUCAUCGAGUGA [Fam2.1 aminoacylation ribozyme variant]	4.09	2.6	3.16	2.36	3.93	4.03
AUUACUCUAGUCAUCGAGUGA [Fam2.1 aminoacylation ribozyme variant]	19.1	2.95	5.28	2.9	5.41	6.32
AUUACUCUGGUCAACGAGUGA [Fam2.1 aminoacylation ribozyme variant]	26.9	3.12	5	2.76	5.72	7.22
AUUACUCUGGUCAUCGAGUGA [Fam2.1 aminoacylation ribozyme variant]	6.25	3.77	6.63	3.78	6.98	7.48
